Measured values: patent US20200282021A1

Biological target: GLP-1 receptor expressed on the transgenic cell line GLP1R_cAMP/luc
Test: cell-based or functional assay

Which EC50, cAMP-dependent luciferase reporter in GLP-1R over-expressing cells does the source give for Dulaglutide (TRULICITY) (Fc fusion) here?
The EC50, cAMP-dependent luciferase reporter in GLP-1R over-expressing cells was 6.66 pM.
